Blank lines part the entries; values can stand above or below the binder they belong to.
How the values were obtained:
[1] = target: T1, GST-Scc1 (281–420)-SA2 (80–1060) sub-complex (UniProt O60216 281-420; Q8N3U4 80-1060); assay: pull-down; MBP fusion protein as bait, eluted GST-Scc1 (281–420)-SA2 (80–1060) as prey; binding 2 h, three washes of 5 min in P150 buffer; immunoblot for GST; settings: both partners purified
T1 sequence (looked up) 1: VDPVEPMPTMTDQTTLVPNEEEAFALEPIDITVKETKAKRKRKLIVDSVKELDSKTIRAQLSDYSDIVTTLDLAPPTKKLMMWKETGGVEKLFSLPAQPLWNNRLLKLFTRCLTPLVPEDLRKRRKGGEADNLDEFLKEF
T1 sequence (looked up) 2: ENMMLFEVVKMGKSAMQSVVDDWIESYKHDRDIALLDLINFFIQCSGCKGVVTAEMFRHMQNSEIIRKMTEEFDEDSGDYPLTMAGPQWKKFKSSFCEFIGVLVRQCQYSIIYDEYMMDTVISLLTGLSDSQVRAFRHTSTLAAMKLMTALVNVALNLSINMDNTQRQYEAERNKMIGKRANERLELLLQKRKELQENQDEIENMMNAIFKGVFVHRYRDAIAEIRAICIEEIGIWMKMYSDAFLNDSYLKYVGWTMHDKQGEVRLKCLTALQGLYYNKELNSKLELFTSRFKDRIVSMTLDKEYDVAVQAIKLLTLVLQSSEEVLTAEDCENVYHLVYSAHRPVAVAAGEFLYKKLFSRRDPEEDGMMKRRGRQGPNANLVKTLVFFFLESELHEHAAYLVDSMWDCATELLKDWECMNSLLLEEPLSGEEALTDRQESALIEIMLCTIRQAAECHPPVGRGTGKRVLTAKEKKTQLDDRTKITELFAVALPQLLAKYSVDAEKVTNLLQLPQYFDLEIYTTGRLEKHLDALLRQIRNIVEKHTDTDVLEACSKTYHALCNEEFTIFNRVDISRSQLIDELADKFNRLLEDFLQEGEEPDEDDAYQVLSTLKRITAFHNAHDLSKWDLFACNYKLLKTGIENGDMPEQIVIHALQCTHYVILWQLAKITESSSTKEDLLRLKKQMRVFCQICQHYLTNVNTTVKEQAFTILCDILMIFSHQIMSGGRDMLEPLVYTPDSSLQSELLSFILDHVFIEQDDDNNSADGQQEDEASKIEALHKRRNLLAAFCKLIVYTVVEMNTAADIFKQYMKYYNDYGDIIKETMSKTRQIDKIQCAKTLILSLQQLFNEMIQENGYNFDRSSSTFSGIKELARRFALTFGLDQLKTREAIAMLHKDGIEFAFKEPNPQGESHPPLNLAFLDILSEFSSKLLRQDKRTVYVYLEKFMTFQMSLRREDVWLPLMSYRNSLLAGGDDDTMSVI

[2] = target: T1, GST-Scc1 (281–420)-SA2 (80–1060) …; assay: pull-down; GST-Scc1 (281–420)-SA2 (80–1060) as bait, purified recombinant MBP fusion proteins as prey; immunoblot for MBP; settings: both partners purified

- binding result [1]: binds
B1: MBP-CENP-U (1–200) (domain or fragment, human, UniProt Q71F23 1-200, looked up)
chain: MAPRGRRRPRPHRSEGARRSKNTLERTHSMKDKAGQKCKPIDVFDFPDNSDVSSIGRLGENEKDEETYETFDPPLHSTAIYADEEEFSKHCGLSLSSTPPGKEAKRSSDTSGNEASEIESVKISAKKPGRKLRPISDDSESIEESDTRRKVKSAEKISTQRHEVIRTTASSELSEKPAESVTSKKTGPLSAQPSVEKENL
notes: human CENP-U, residues 1–200; vector pMal-C2E; also called MBP-fused CENP-U (1–200); source: E. coli BL21 (DE3), purified (amylose resin)

- binding result [2]: binds
B2: MBP-Sgo1 (230–400) (domain or fragment, human, UniProt Q5FBB7 230-400, looked up)
chain: DPLVNMHIPENVQHNACQWSKDQVNLSPKLIQPGTFTKTKEDILESKSEQTKSKQRDTQERKREEKRKANRRKSKRMSKYKENKSENKKTVPQKKMHKSVSSNDAYNFNLEEGVHLTPFRQKVSNDSNREENNESEVSLCESSGSGDDSDDLYLPTCKYIQNPTSNSDRPV
notes: human Sgo1, residues 230–400; vector pMal-C2E; also called recombinant MBP-Sgo1 (230–400); source: E. coli BL21 (DE3), purified (amylose resin)

- binding result [2]: binds
B3: MBP-Wapl (1–630) (domain or fragment, human, UniProt Q7Z5K2 1-630, looked up)
chain: MTSRFGKTYSRKGGNGSSKFDEVFSNKRTTLSTKWGETTFMAKLGQKRPNFKPDIQEIPKKPKVEEESTGDPFGFDSDDESLPVSSKNLAQVKCSSYSESSEAAQLEEVTSVLEANSKISHVVVEDTVVSDKCFPLEDTLLGKEKSTNRIVEDDASISSCNKLITSDKVENFHEEHEKNSHHIHKNADDSTKKPNAETTVASEIKETNDTWNSQFGKRPESPSEISPIKGSVRTGLFEWDNDFEDIRSEDCILSLDSDPLLEMKDDDFKNRLENLNEAIEEDIVQSVLRPTNCRTYCRANKTKSSQGASNFDKLMDGTSQALAKANSESSKDGLNQAKKGGVSCGTSFRGTVGRTRDYTVLHPSCLSVCNVTIQDTMERSMDEFTASTPADLGEAGRLRKKADIATSKTTTRFRPSNTKSKKDVKLEFFGFEDHETGGDEGGSGSSNYKIKYFGFDDLSESEDDEDDDCQVERKTSKKRTKTAPSPSLQPPPESNDNSQDSQSGTNNAENLDFTEDLPGVPESVKKPINKQGDKSKENTRKIFSGPKRSPTKAVYNARHWNHPDSEELPGPPVVKPQSVTVRLSSKEPNQKDDGVFKAPAPPSKVIKTVTIPTQPYQDIVTALKCRREDK
notes: human Wapl, residues 1–630, with all three FGF motifs; vector pMal-C2E; also called MBP-fused Wapl (1–630); source: E. coli BL21 (DE3), purified (amylose resin; on resin or eluted)

Source: PMC11182772, “A non-canonical role of the inner kinetochore in regulating sister-chromatid cohesion at centromeres” (The EMBO Journal, 2024)
